Laboratory results from patent US7691806B2, “Repeat sequence protein polymer active agent congjugates, methods and uses” (priority 2003, dated 2010).

Tested on: Human dermal fibroblasts
Assay: Fibroblast cell survival after UVB exposure (MTT assay)
Type: cell-based
Conditions: UVB approximately 50 mj/cm^2, treated after exposure, MTT 48 hours later
Description: Construction, analysis and verification of the SELP47K-P4 (SEQ. ID. NO. 36) conjugate proceeded as follows. SELP constructs in which all polymer subunits contain additional P4 (ALSYP) peptide sequences were made as follows: Artificial gene synthesis was used to create a 2 subunit version of the desired construct in which each identical subunit contains a unique non-palindromic restriction site. Specifically, SELP subunits contained either BBI derived P4 sequences (Seq ALSYP) incorporated in two places per subunit, flanking the silk region, incorporated between the C-terminal end of the silk region and the N-terminal end of the elastin region. A BsgI restriction enzyme cleavage site was designed within each subunit. Gene construction was carried out by Blue Heron Biotechnology (Bothell, Wash.). […] Resulting modified SELP monomers as well as plasmid vector were purified from agarose gels and concentrated using a Spin Vac. Monomers were self ligated using T4 DNA ligase (New England Biolabs) as per manufacturer's instructions overnight at 16 C. Original purified vector was added to ligation mix with additional fresh ligase and incubated at 16 C for an additional 24 hrs. Ligation mix was used to transform E. coli TOP10 cells (Invitrogen) as per manufacturer's instructions. Resulting transformants were used to inoculate culture tubes containing 5 ml Luria broth and appropriate antibiotic. […]

B1: SELP47K-P4 (protein)
chain: MDPVVLQRRDWENPGVTQLNRLAAHPPFASDPMGAGAGSGAGAGSALSYPGVGVPGVGVPGVGVPGVGVPGKGVPGVGVPGVGVPGVGVPALSYPGAGAGSGAGAGSGAGAGSGAGAGSALSYPGVGVPGVGVPGVGVPGVGVPGKGVPGVGVPGVGVPGVGVPALSYPGAGAGSGAGAGSGAGAGSGAGAGSALSYPGVGVPGVGVPGVGVPGVGVPGKGVPGVGVPGVGVPGVGVPALSYPGAGAGSGAGAGSGAGAGSGAGAGSALSYPGVGVPGVGVPGVGVPGVGVPGKGVPGVGVPGVGVPGVGVPALSYPGAGAGSGAGAGSGAGAGSGAGAGSALSYPGVGVPGVGVPGVGVPGVGVPGKGVPGVGVPGVGVPGVGVPALSYPGAGAGSGAGAGSGAGAGSGAGAGSALSYPGVGVPGVGVPGVGVPGVGVPGKGVPGVGVPGVGVPGVGVPALSYPGAGAGSGAGAGSGAGAGSGAGAGSALSYPGVGVPGVGVPGVGVPGVGVPGKGVPGVGVPGVGVPGVGVPALSYPGAGAGSGAGAGSGAGAGSGAGAGSALSYPGVGVPGVGVPGVGVPGVGVPGKGVPGVGVPGVGVPGVGVPALSYPGAGAGSGAGAGSGAGAGSGAGAGSALSYPGVGVPGVGVPGVGVPGVGVPGKGVPGVGVPGVGVPGVGVPALSYPGAGAGSGAGAGSGAGAGSGAGAGSALSYPGVGVPGVGVPGVGVPGVGVPGKGVPGVGVPGVGVPGVGVPALSYPGAGAGSGAGAGSGAGAGSGAGAGSALSYPGVGVPGVGVPGVGVPGVGVPGKGVPGVGVPGVGVPGVGVPALSYPGAGAGSGAGAGSGAGAGSGAGAGSALSYPGVGVPGVGVPGVGVPGVGVPGKGVPGVGVPGVGVPGVGVPALSYPGAGAGSGAGAGSGAGAGSGAGAGSALSYPGVGVPGVGVPGVGVPGVGVPGKGVPGVGVPGVGVPGVGVPALSYPGAGAGSGAGAGSGAGAMDPGRYQDLRSHHHHHH
modifications: P4-SELP47K silk, elastin ad UV-protective peptides
viability improvement of UV treated human fibroblast cells: 100%
